Measurements: patent US20240317834A1, “COMPOSITIONS AND METHODS FOR NEUROLOGICAL DISEASES” (CODA BIOTHERAPEUTICS, INC., priority 2020, published 2024)

Tests used:
[1] = test system: Lenti-X 293T cells; assay: YFP fluorescence quenching anion reporter plate reader assay of engineered receptors stimulated with acetylcholine or a non-native ligand; assay type: cell-based
In short: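 Lenti-X 293T cells carrying a YFP anion reporter were transiently transfected with channel DNA and assayed the next day in HEPES-buffered ECS at pH 7.2. Ligand (acetylcholine or non-native ligand) was added in NaI-substituted ECS. Percent quench was the mean of the last 10 s relative to the 15 s pre-addition baseline.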

[2] = test system: rat DRG neurons; assay: Rheobase shift and evoked action potentials in rat DRG neurons (current clamp); assay type: cell-based
Description: Using whole cell manual patch clamp electrophysiology in HEK293 cells, rat DRG neurons and rat hippocampal neurons, the EC50 of the various engineered receptors disclosed herein to Ach and non-native ligands was measured using the Hill equation with peak current measurements from escalating doses of ligand. The rheobase shift was also measured in rat DRG neurons, which reflects the efficacy of the receptors. To calculate the rheobase, first, the amount of current that can produce an action potential was determined. Then the ligand was added, followed by a step wise increase in the current injected up to 700 pA.
For manual patch clamp experiments, Cells plated on coverslips were visualized at 10× and 40× on an inverted fluorescence microscope (Olympus). Recordings were made with an Axopatch 200B amplifier and Digidata 1550B (Molecular Devices) at RT using 3-6 MOhm glass patch electrodes (Sutter, BF150-86-10). Unless otherwise stated, recordings were made in extracellular solution (ECS) containing: 140 mM sodium chloride, 4 mM potassium chloride, 1 mM magnesium chloride, 2 mM calcium chloride, 10 mM HEPES, and 10 mM D-(+)-glucose (pH=7.3 with sodium hydroxide, osmolarity=305−315 mOsm). An 8-line reservoir (AutoMate Scientific) in combination with an 8-channel zero-dead-volume perfusion pencil (AutoMate Scientific) was used for perfusion. Data was acquired using pClamp software (Molecular Devices). Traces were either analyzed in Clampfit (Molecular Devices) or using custom Python code. Plotting and statistics were performed in GraphPad Prism.
DRG rheobase experiments were performed in current clamp mode using a potassium-based internal solution containing: 100 mM potassium D-gluconate, 28 mM potassium chloride, 1 mM magnesium chloride hexahydrate, 5 mM magnesium ATP, 10 mM HEPES, and 0.5 mM EGTA (pH=7.2 with potassium hydroxide, osmolarity=290-295 mOsm, calculated liquid junction potential=−13.5 mV). To measure DRG input resistance and rheobase, 500 ms current steps (−200 pA to 700 pA) were applied the membrane in the presence and absence of a compound. No holding current was applied to the membrane for cells included in the final datasets. Data were acquired at 10 kHz, with Bessel filter at 2 kHz and series resistance compensation at 100%. Rheobase was defined as the smallest depolarizing current injection required to cause an action potential to fire in the cell. In a subset of cells, the rheobase was ambiguous, since the action potential appeared to be graded in amplitude. In these cases, a […] of the trace clarified the rheobase. Input resistance was measured from the negative current injections, calculated as the difference in membrane potential at steady state divided by the current injection amplitude and then averaged across the four negative current steps for each recording. Resting membrane potential was measured from the first 100 ms of each sweep, averaged for each recording, and corrected for liquid junction potential. One-way ANOVA with multiple comparisons was used to test for significance of difference in rheobase and input resistance between baseline, drug, and wash conditions.

B1: CODA1045: engineered chimeric LGIC receptor, R101W, Y210V in SEQ ID NO: 33 (protein)
chain: MRCSPGGVWLALAASLLHVSLQGEFQRKLYKELVKNYNPLERPVANDSQPLTVYFSLSLLQIMDVDEKNQVLTTNIWLQMSWTDHYLQWNVSEYPGVKTVWFPDGQIWKPDILLYNSADERFDATFHTNVLVNSSGHCQYLPPGIFKSSCPMDLKNFPMDVQTCKLKFGSWSYGGWSLDLQMQEADISGYIPNGEWDLVGIPGKRSERFVECCKEPYPDVTFTVTMRRRMGYYLIQMYIPSLLIVILSWISFWINMDAAPARVGLGITTVLTMTTQSSGSRASLPKVSYVKAIDIWMAVCLLFVFSALLEYAAVNFVSRQHKELLRFRRKRRHHKSPMLNLFQEDEAGEGRFNFSAYGMGPACLQAKDGISVKGANNSNTTNPPPAPSKSPEEMRKLFIQRAKKIDKISRIGFPMAFLIFNMFYWIIYKIVRREDVHNQ
modifications: synthetic sequence of chimeric LGIC
YFP fluorescence quenching using CNL001 ([1]; 1 nM CNL001, first column): 0.804%
YFP fluorescence quenching using CNL001 ([1]; 1 nM CNL001, second column): 11.275%
YFP fluorescence quenching using TC-5619/Bradanicline ([1]; 1 nM brd): −1.431%
YFP fluorescence quenching using TC-5619/Bradanicline ([1]; 3 nM brd): −14.993%
YFP fluorescence quenching using Varenicline ([1]; 3 nM var, first column): 6.745
YFP fluorescence quenching using Varenicline ([1]; 3 nM var, second column): 8.397
YFP fluorescence quenching using CNL001 ([1]; 10 nM CNL001, first column): 15.843%
YFP fluorescence quenching using CNL001 ([1]; 10 nM CNL001, second column): 16.619%
YFP fluorescence quenching using TC-5619/Bradanicline ([1]; 10 nM brd): −5.52%
YFP fluorescence quenching using TC-5619/Bradanicline ([1]; 30 nM brd): 15.49%
YFP fluorescence quenching using Varenicline ([1]; 30 nM var, first column): 14.1
YFP fluorescence quenching using Varenicline ([1]; 30 nM var, second column): 19.095
YFP fluorescence quenching using CNL001 ([1]; 50 nM CNL001, first column): 15.205%
YFP fluorescence quenching using CNL001 ([1]; 50 nM CNL001, second column): 18.771%
YFP fluorescence quenching using ABT-126 ([1]; 50 nM abt): −24.16%
YFP fluorescence quenching using CNL001 ([1]; 100 nM CNL001, first column): 9.332%
YFP fluorescence quenching using CNL001 ([1]; 100 nM CNL001, second column): 18.218%
YFP fluorescence quenching using ABT-126 ([1]; 100 nM abt): −24.7%
YFP fluorescence quenching using TC-5619/Bradanicline ([1]; 100 nM brd): 72.105%
YFP fluorescence quenching using ABT-126 ([1]; 300 nM abt): −16.09%
YFP fluorescence quenching using TC-5619/Bradanicline ([1]; 300 nM brd): 71.411%
YFP fluorescence quenching using Varenicline ([1]; 300 nM var, first column): 16.83
YFP fluorescence quenching using Varenicline ([1]; 300 nM var, second column): 21.507
YFP fluorescence quenching using Varenicline ([1]; 500 nM var, first column): 21.586
YFP fluorescence quenching using Varenicline ([1]; 500 nM var, second column): 23.131
YFP fluorescence quenching using CNL001 ([1]; 1 uM CNL001, first column): 35.294%
YFP fluorescence quenching using CNL001 ([1]; 1 uM CNL001, second column): 36.542%
YFP fluorescence quenching using ABT-126 ([1]; 1 uM abt): −11.61%
YFP fluorescence quenching using Varenicline ([1]; 1 uM var, first column): 31.591
YFP fluorescence quenching using Varenicline ([1]; 1 uM var, second column): 26.479
percent quench of YFP fluorescence, 30 nM TC-6683 ([1]; TC-6683 30 nM): 1.735%
percent quench of YFP fluorescence, 300 nM TC-6683 ([1]; TC-6683 300 nM): 0.642%
percent quench of YFP fluorescence, 3 uM TC-6683 ([1]; TC-6683 3 uM): 2.403%
percent quench of YFP fluorescence, 30 uM TC-6683 ([1]; TC-6683 30 uM): 6.006%
percent quench of YFP fluorescence, 100 uM TC-6683 ([1]; TC-6683 100 uM): −4.277%
percent quench of YFP fluorescence, 10 uM ach ([1]; acetylcholine 10 uM): −2.52%
percent quench of YFP fluorescence, 100 uM ach ([1]; acetylcholine 100 uM): −11.98%
percent quench of YFP fluorescence, 300 uM ach ([1]; acetylcholine 300 uM): −16.71%
percent quench of YFP fluorescence, 500 uM ach ([1]; acetylcholine 500 uM): −12.87%
percent quench of YFP fluorescence, 1 mM ach ([1]; acetylcholine 1 mM): −14.41%
percent quench of YFP fluorescence, 3 mM ach ([1]; acetylcholine 3 mM): −7.4%
percent quench of YFP fluorescence, 10 mM ach ([1]; acetylcholine 10 mM): −1.5%
Rheobase Shift; Rat DRG Neurons, +TC-5619 @ EC90 ([2]; +TC-5619 @ EC90): 700 ± 0 pA
Rheobase Shift; Rat DRG Neurons, Baseline ([2]; Baseline, no ligand): 141 ± 22 pA
